Measured values published in the nanobody polyreactivity screen of Harvey et al. (2022).

Assay: yeast display, Sf9 membrane polyspecificity reagent, FACS + sequencing; frameworks hold sequencing errors
In short: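 A synthetic nanobody library was expressed on Saccharomyces cerevisiae BJ5465 by galactose induction for 36–48 hours. The library was stained for 1 hour at 4 °C with 10% biotinylated, detergent-solubilized Sf9 membrane reagent and enriched with streptavidin microbeads before FACS. Low and high (top ~1%) gates were set on anti-HA fluorescence for expression and streptavidin fluorescence for reagent binding, and each polyreactivity label reflects the gate of origin.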
In the case of “QVQLVESGGGLVQAGGSLRLSCAASGSTLSFYAMGWYRQAPGKERELVAAISYSTGTTYYADSVKGRFTISRDNAKNTVYLQMNSLKPEDTAVYYCAVYWQHNSTRYYYWGQGTQVTVSS”, the “polyreactivity (PSR sort gate)” value was “high polyreactivity”. For “QVQLVESGGGLVQAGGSLRLSCAASGSTLSHYAMGWYRQAPGKERELVAAINSNGGSTYYADSVKGRFTISRDNAKNTVYLQMNSLKPEDTAVYYCNTYFRYFSFYGRPFDYWGQGTQVTVSS”, the “polyreactivity (PSR sort gate)” value was “high polyreactivity”. With “QVQLVESGGGLVQAGGSLRLSCAASGSTLSINAMGGYRQAAGKERELVAGITYSGGSEYYADSVKGRFSISRDNAKNNVYLQMNSMKPEDTAVYYCNKASGVYYGHLDYWRQGTQVTVSS” the “polyreactivity (PSR sort gate)” value was “low polyreactivity”. For “QVQLVESGGGLVQAGGSLRLSCAASGSTLSRYTMGWSRQAPGKERELVAAIRSSGGSTYYADSVKGRFTISRDNAKNTVYLQMNSLKPEDTAVYYCARTQQRTTEREHWIRYYYWGQGTQVTVSS”, the “polyreactivity (PSR sort gate)” value was “low polyreactivity”. With “QVQLVESGGGLVQAGGSLRLSCAASGSTLSSYDMGWYRQAPGKERELVASISSGGSTYYADSVKGRFTISRDNAKNTVYLQMNSVKPEDTAVYYCLYWSYDWGQGTQVTVSS” the “polyreactivity (PSR sort gate)” value was “low polyreactivity”. With “QVQLVESGGGLVQAGGSLRLSCAASGSTLSVYVMGWYSQAPGKERELVAAITRGGSTNYADSVKGRFTISRDNAKNTVYLQMISLKPEDTAVYYCAARAFVYYHHGEGSRSGRYYYWGQGTQVTVSS” the “polyreactivity (PSR sort gate)” value was “high polyreactivity”. In the case of “QVQLVESGGGLVQAGGSLRLSCAASGSTLTEYAMGWYRQAPGKEREFVAAISRSAGSTYYADSVKGRFTISRDNAKNTVYLQMNSLKPDDTAVYYCAVAVRVGFDYFSGQADIYYYWGQGTQVTVSS”, the “polyreactivity (PSR sort gate)” value was “low polyreactivity”. With “QVQLVESGGGLVQAGGSLRLSCAASGSTLTEYAMGWYRQAPGKEREFVAAISRSAGSTYYADSVKGRFTISRDNAKNTVYLQMNSLKPEETAVYYCAVAVRVGFDYFSGQADIYYYWGQGTQVTVSS” the “polyreactivity (PSR sort gate)” value was “low polyreactivity”. In the case of “QVQLVESGGGLVQAGGSLRLSCAASGSTLTRNAMGLYRQAPGTERELVATITATGGSTYYADSVKGRFTISRDNAKYTVYLQMNSLKTEDTAVYYCAAAYPTYRHYYWGQGTQVTVSS”, the “polyreactivity (PSR sort gate)” value was “low polyreactivity”. With “QVQLVESGGGLVQAGGSLRLSCAASGSTLTYNAMGWYRQAPGKERELVAVISARGGRTYYADSVKGRFTISRDNAKNTVYLQMNSLKPEDTAVYYCAAVFYYSYYRITSGDYWGQGTQVTVSS” the “polyreactivity (PSR sort gate)” value was “high polyreactivity”. With “QVQLVESGGGLVQAGGSLRLSCAASGSTLVGNAMGWYRQAPGKERELVATIDLSDDITYYADSVKGRFTISRDKAKNTVYLQMNSLKPEDTAVYYCAAEYYLYSTYTVSYWKYDYWGQGTQVTVSS” the “polyreactivity (PSR sort gate)” value was “high polyreactivity”. For “QVQLVESGGGLVQAGGSLRLSCAASGSTLVIYAMGWYRQAPGKERELVAAINFSDGSTSYADSVKGRFSISRDNAKNTVYLQMNRLKPEDTAVYYLGQGTQVTVSS”, the “polyreactivity (PSR sort gate)” value was “low polyreactivity”. For “QVQLVESGGGLVQAGGSLRLSCAASGSTLVIYAMGWYRQAPGKERELVAAINFSDGSTSYADSVKGRFTISRDNAKNTVYLQMNSLKPEDTAVFYWGQGTQVTVSS”, the “polyreactivity (PSR sort gate)” value was “low polyreactivity”. With “QVQLVESGGGLVQAGGSLRLSCAASGSTLVIYAMGWYRQAPGKERELVAAINFSDGSTSYADSVKGRFTISRDNSKTTVYFQMNSLKPEDTAVYYWGQGTQVTVSS” the “polyreactivity (PSR sort gate)” value was “low polyreactivity”. In the case of “QVQLVESGGGLVQAGGSLRLSCAASGSTLVRNAMGWSRPAPGKERDLVAAITSSGGRTYYADSVKGRFTISRDTAKNTVYLQMNSLKPEDTAVYYCNRVSRYYLYDYWGQGTQVTVSS”, the “polyreactivity (PSR sort gate)” value was “high polyreactivity”. In the case of “QVQLVESGGGLVQAGGSLRLSCAASGSTLVTYAMGWSRQAPGTERELVAAISYSGGSTYADSVKGRFTISRDNAKNTVYLQMNSLKPEDTAVYYCNSDTSVDVRFDYWGQGTQVTVSS”, the “polyreactivity (PSR sort gate)” value was “low polyreactivity”. For “QVQLVESGGGLVQAGGSLRLSCAASGSTLVYNDMGWYRQAPGKERELGATITGTDSTYYADSVKGRFTISRDNAKNTVYLQMNSLKPEDTADCAADRAASRPDYDYWGQGTQVTVSS”, the “polyreactivity (PSR sort gate)” value was “low polyreactivity”. For “QVQLVESGGGLVQAGGSLRLSCAASGSTLVYNDMGWYRQAPGKERELVAAISSGASTYADSVKGRFTISRDNAKNTVYLQMNSLKPEDTAVYYCAKDIKLGPVGHSKYHRYDYWGQGTQVTVSS”, the “polyreactivity (PSR sort gate)” value was “low polyreactivity”. For “QVQLVESGGGLVQAGGSLRLSCAASGSTLVYYDMGWYRQAPGKEREFVAAITISGGRTYYADSVKGRFTISRDNAKNTVYLQMNSLKPEDTAVYYCAADTDRRSPFDYWGQGTQVTVSS”, the “polyreactivity (PSR sort gate)” value was “high polyreactivity”. In the case of “QVQLVESGGGLVQAGGSLRLSCAASGSTLYDYAMGWYRQAPGKERELVAAINGSGGSTYYADSVKGRFTISRDNAKNTVYLQMNSLKPEDTAVYYCAAATTHRRRYGYWGQGTQVTVSS”, the “polyreactivity (PSR sort gate)” value was “low polyreactivity”. With “QVQLVESGGGLVQAGGSLRLSCAASGSTLYDYTMGWYRQAPGKERELVAAIRVSGARTFYADSVKGRFTISRDNAKNTVYLQMNSLKPEDTAVYYCAARWYIANPLSPSDYWGQGTQVTVSS” the “polyreactivity (PSR sort gate)” value was “low polyreactivity”. For “QVQLVESGGGLVQAGGSLRLSCAASGSTLYGNVMGWYRQAPGKERELVATINRGGSTNYADSVKGRFTISRDNAKNTVYLQMNSLKPEDTAVYYCAARGFAWYYLEDYWGQGTQVTVSS”, the “polyreactivity (PSR sort gate)” value was “low polyreactivity”. In the case of “QVQLVESGGGLVQAGGSLRLSCAASGSTLYGYAMGWSRQAPGKERELVAAISDSGGNTYYADSVKGRFTISRDNAKNTGYLQMNSLKPEDTAVYYCAAEDIVFPYDYWGQGTQVTVSS”, the “polyreactivity (PSR sort gate)” value was “low polyreactivity”. For “QVQLVESGGGLVQAGGSLRLSCAASGSTLYHSTMGWYRKAPGKETELVAAITWSGGSTSYADSVKGRFTISRDNAKNTVYLQMNSLKPEDTAVYYCAADDTPDDSDYWGQGTQVTVSS”, the “polyreactivity (PSR sort gate)” value was “low polyreactivity”. With “QVQLVESGGGLVQAGGSLRLSCAASGSTLYKYAMVWYRQAPGKEREFVAAITRSGGSTYYADSVKGRFTISRDNAKNTVDLQMNSLKPEDTAVYYCAARVRVYSGWLYNYWGQGTQVTVSS” the “polyreactivity (PSR sort gate)” value was “high polyreactivity”. In the case of “QVQLVESGGGLVQAGGSLRLSCAASGSTLYRYAMGWYRQAPGKERELVAAISSSGGSTYYADSVKGRFTISRDNAKNTVYLQMNSLKPEDTAVYYCAAYFSTAPKSQYKLDYWGQGTQVTVSS”, the “polyreactivity (PSR sort gate)” value was “high polyreactivity”. For “QVQLVESGGGLVQAGGSLRLSCAASGSTLYSYAMGWYRQAPGKERELVAAIRRDSGRTYYADSVKGRFTISRDNEKNTVYLQMNSLKPEDTAVYYCAAAYRLGYHKYYYWGQGTQVTVSS”, the “polyreactivity (PSR sort gate)” value was “high polyreactivity”. For “QVQLVESGGGLVQAGGSLRLSCAASGSTLYVYAMGWYRQAPGKEREFVADISWSGGSTYYADSVKGRFTISRDNAKNTVYLQMNILKPEDTAVYYCNADFTDSYWSRYDYWGQGTQVTVSS”, the “polyreactivity (PSR sort gate)” value was “low polyreactivity”. With “QVQLVESGGGLVQAGGSLRLSCAASGSTLYVYAMGWYRQAPGKERELVAAITRGSRTSYADSVKGRFTISRDNAKNTVYLQMNSLKPEDTAVYYCNADTILWFLPPQKRDYWGQGTQVTVSS” the “polyreactivity (PSR sort gate)” value was “low polyreactivity”. In the case of “QVQLVESGGGLVQAGGSLRLSCAASGSTLYVYTMGWYRQAPGKERELVAGITRGGSTYYADSVKGRFTISRDNAKNTVYLQMNSLKPEDTAVYYCAARSSYREYYWGQGTQVTVSS”, the “polyreactivity (PSR sort gate)” value was “high polyreactivity”.
